Experimental data reported in publication PMC2430598, “Structural Analysis Reveals Conformational Plasticity in the Recognition of RNA 3′ Ends by the Human La Protein”.

Assays:
LaNTD (La 4-194) [1] = molecular target: T1, LaNTD (La 4-194) (Homo sapiens, UniProt P05455 4-194); assay: X-ray crystallography; 2.1 A, C2; EMSA: ~1 nM radiolabeled RNA, protocol of Jacks et al. 2003 (buffer, salt, pH, temperature not given); NMR: 15N-LaNTD, RNA:protein 0.2-1.5:1, NMR buffer not given; conditions: protein: recombinant; tags: N-terminal 6xHis removed by thrombin; leaves Gly-Ser; single strand
T1 sequence: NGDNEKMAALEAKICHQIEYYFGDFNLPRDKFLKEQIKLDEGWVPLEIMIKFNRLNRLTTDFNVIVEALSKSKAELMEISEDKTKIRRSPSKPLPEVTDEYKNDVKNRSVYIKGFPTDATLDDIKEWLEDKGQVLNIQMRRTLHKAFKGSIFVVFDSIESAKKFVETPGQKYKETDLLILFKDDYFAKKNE

LaNTD (La 1-194) [2] = molecular target: T2, LaNTD (La 1-194) (Homo sapiens, UniProt P05455 1-194); assay: NMR HSQC titration and relaxation; EMSA: ~1 nM radiolabeled RNA, protocol of Jacks et al. 2003 (buffer, salt, pH, temperature not given); NMR: 15N-LaNTD, RNA:protein 0.2-1.5:1, NMR buffer not given; conditions: protein: recombinant; single strand
T2 sequence: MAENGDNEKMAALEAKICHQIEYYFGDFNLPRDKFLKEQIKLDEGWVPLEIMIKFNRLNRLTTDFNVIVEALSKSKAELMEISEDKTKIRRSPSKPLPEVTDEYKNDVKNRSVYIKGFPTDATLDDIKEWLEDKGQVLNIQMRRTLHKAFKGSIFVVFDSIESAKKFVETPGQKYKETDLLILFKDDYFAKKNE

LaNTD (La 4-194) [3] = molecular target: T1, LaNTD (La 4-194); assay: X-ray crystallography; 1.8 A, P21212; only last two U modelled; EMSA: ~1 nM radiolabeled RNA, protocol of Jacks et al. 2003 (buffer, salt, pH, temperature not given); NMR: 15N-LaNTD, RNA:protein 0.2-1.5:1, NMR buffer not given; conditions: protein: recombinant; tags: N-terminal 6xHis removed by thrombin; leaves Gly-Ser; single strand
LaNTD (La 1-194) [4] = molecular target: T2, LaNTD (La 1-194); assay: EMSA; EMSA: ~1 nM radiolabeled RNA, protocol of Jacks et al. 2003 (buffer, salt, pH, temperature not given); NMR: 15N-LaNTD, RNA:protein 0.2-1.5:1, NMR buffer not given; conditions: protein: recombinant, single strand
LaNTD (La 1-194) [5] = molecular target: T2, LaNTD (La 1-194); assay: NMR HSQC titration; EMSA: ~1 nM radiolabeled RNA, protocol of Jacks et al. 2003 (buffer, salt, pH, temperature not given); NMR: 15N-LaNTD, RNA:protein 0.2-1.5:1, NMR buffer not given; conditions: protein: recombinant; single strand
LaNTD (La 1-194) [6] = molecular target: T2, LaNTD (La 1-194); assay: EMSA; reference oligomer for relative Kd; EMSA: ~1 nM radiolabeled RNA, protocol of Jacks et al. 2003 (buffer, salt, pH, temperature not given); NMR: 15N-LaNTD, RNA:protein 0.2-1.5:1, NMR buffer not given; conditions: protein: recombinant; label: radiolabeled; single strand
LaNTD (La 1-194) [7] = molecular target: T2, LaNTD (La 1-194); assay: NMR HSQC titration; split resonances, two states; EMSA: ~1 nM radiolabeled RNA, protocol of Jacks et al. 2003 (buffer, salt, pH, temperature not given); NMR: 15N-LaNTD, RNA:protein 0.2-1.5:1, NMR buffer not given; conditions: protein: recombinant; single strand
LaNTD (La 4-194) [8] = molecular target: T1, LaNTD (La 4-194); assay: X-ray crystallography; 2.8 A, C222; EMSA: ~1 nM radiolabeled RNA, protocol of Jacks et al. 2003 (buffer, salt, pH, temperature not given); NMR: 15N-LaNTD, RNA:protein 0.2-1.5:1, NMR buffer not given; conditions: protein: recombinant; tags: N-terminal 6xHis removed by thrombin; leaves Gly-Ser; single strand

AUAAUUU (ssRNA): binds (LaNTD (La 4-194) [1]).

UUU (ssRNA): binds (LaNTD (La 1-194) [2]).

UUUUUUUU (ssRNA) [UUUUUUUU (U8)]: binds (LaNTD (La 4-194) [3]).

ACACACUUUU (ssRNA) was tested, and the binding signal (LaNTD (La 1-194) [4]; label: radiolabeled) was 0.7 ± 0.2 Kd relative to CACACAAUUU (30 nM).

UCUU (ssRNA): binds (LaNTD (La 1-194) [5]).

CACACAAUUU (ssRNA) showed a Kd (LaNTD (La 1-194) [6]) of 30 nM.

For CACACACCUU (ssRNA), the binding signal (LaNTD (La 1-194) [4]; label: radiolabeled) was 2.4 ± 0.5 Kd relative to CACACAAUUU (30 nM).

UUUUUUUUUU (ssRNA) [UUUUUUUUUU (U10)] was tested, and the binding signal (LaNTD (La 1-194) [4]; (radiolabeled) in gel shift, unlabeled in NMR) was 1 ± 0.4 Kd relative to CACACAAUUU (30 nM).

CACACAUAUU (ssRNA) was tested, and the binding signal (LaNTD (La 1-194) [4]; label: radiolabeled) was 1 ± 0.2 Kd relative to CACACAAUUU (30 nM).

CACACAUUUU (ssRNA) was tested, and the binding signal (LaNTD (La 1-194) [4]; label: radiolabeled) was 0.8 ± 0.3 Kd relative to CACACAAUUU (30 nM).

AUAUUUU (ssRNA): binds (LaNTD (La 4-194) [1]).

For CACACAAAUU (ssRNA), the binding signal (LaNTD (La 1-194) [4]; label: radiolabeled) was 2.8 ± 1.1 Kd relative to CACACAAUUU (30 nM).

AUUUU (ssRNA): binds (LaNTD (La 1-194) [7]); binds (LaNTD (La 4-194) [8]).

With CACACAUCUU (ssRNA) the binding signal (LaNTD (La 1-194) [4]; label: radiolabeled) was 1.4 ± 0.5 Kd relative to CACACAAUUU (30 nM).

UUUU (ssRNA): binds (LaNTD (La 1-194) [2]).

CACACAACUU (ssRNA) was tested, and the binding signal (LaNTD (La 1-194) [4]; label: radiolabeled) was 2 ± 0.8 Kd relative to CACACAAUUU (30 nM).

For CACACACUUU (ssRNA), the binding signal (LaNTD (La 1-194) [4]; label: radiolabeled) was 1.2 ± 0.4 Kd relative to CACACAAUUU (30 nM).
